The text below walks through data of the supplement of paper PMC10724198.

± gives the standard deviation of the averaged measurements.
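Also: PSI is a weighted mean of sequencing reads over stability bins, variants kept only with over 10 reads, mCherry proximal and sfGFP distal, peptide attached via GGGS linker.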

The data set relates to Saccharomyces cerevisiae. Briefly: protein stability index of tFT-peptide fusion (C-terminal peptide) (PSI (0-1 scale)); higher = more stable (slower turnover). The conditions noted are these: genetic background: wild type; temperature: 30 C.
Regarding QKKKVKETRNER, the protein stability index was 0.672 ± 0.034. The value for QKKNSPIPTNKN was 0.695 ± 0.04; that for QKKSGKNGIRPK was 0.701 ± 0.065; that for QKNKKRQTTYES was 0.662 ± 0.0069. In turn, QKNWWLETVLRG had a protein stability index of 0.72 ± 0.023.

QMKDGKTQKWQE came in with a protein stability index of 0.569 ± 0.048. The sequence QNKKEKRHKTKT registered a protein stability index of 0.648 ± 0.02. QPGRGIAFVCFD returned a protein stability index of 0.735 ± 0.051.

Sequence QPHPPRAVLTGP returned a protein stability index of 0.6975 ± 0.005. Sequence QPLTYHPLLRRP yielded a protein stability index of 0.715 ± 0.051. Under QPPSCTSRPPYR stands 0.718 ± 0.096.

QPRLLGPDRIDL registered a protein stability index of 0.662 ± 0.036.

In the case of QPTPRPSPRPAC, the protein stability index was determined as 0.672 ± 0.025.

In the case of QQISQIFHKQGK, the protein stability index stood at 0.851 ± 0.13. The value for QQTSGVQERICL was 0.744 ± 0.07. QREGPEKRTHGR had a protein stability index of 0.709 ± 0.038. Sequence QRGGVGWILGGV showed a protein stability index of 0.675 ± 0.034. QRGRGGRHVTDI displayed a protein stability index of 0.71 ± 0.069. QRKGNLTKTEPV: the protein stability index is 0.676 ± 0.1. Under QRKLTFIKRYRV stands 0.67 ± 0.041; under QRTQRGKQPGQR, 0.679 ± 0.08.

For QSHALSLRKGMP, the protein stability index was 0.681 ± 0.052. Under QSLPLSAPAPAC stands 0.697 ± 0.037.

Sequence QSPTFLTPLALA had a protein stability index of 0.653 ± 0.039. The value for QSTRPHSHGCLG was 0.748 ± 0.051; that for QTGGPDPSGPPK was 0.693 ± 0.03; that for QTIKKKKKDKKN was 0.764 ± 0.011. The value for QTNIGRKRTLPR was 0.718 ± 0.013.

QTQNEENKKQKY: the protein stability index is 0.612 ± 0.13. Sequence QTVKNYTSQSKR registered a protein stability index of 0.666 ± 0.018.

Consider QTWVQIGIRITL, for which the protein stability index amounted to 0.44 ± 0.087.

In turn, QVGGVRSRGAAG showed a protein stability index of 0.664 ± 0.017. The value for QVGSLEIFLCFI was 0.6323 ± 0.0016; that for QVKVGQTEMAYN was 0.78 ± 0.22; that for QVLIKKRNIKKK was 0.651 ± 0.076. Under QVNSAHKRTGSG stands 0.668 ± 0.061. QVVIGRLSSQVG: the protein stability index came out at 0.664 ± 0.038. Under QWFTCLFYFRSP stands 0.5697 ± 0.0029; under QYGMSSQGGGHN, 0.7312 ± 0.0017.

QYKEFYYQNNRR returned a protein stability index of 0.562 ± 0.062.

As to QYMDQIKGRSGT, the protein stability index turned out to be 0.723 ± 0.0079. In turn, RAADGWGVLCGV displayed a protein stability index of 0.679 ± 0.095.

In turn, RAAREASQDIPN displayed a protein stability index of 0.753 ± 0.12. The value for RACVCPCHPHRY was 0.737 ± 0.025. As to RAGFSEPCGSFS, the protein stability index was determined as 0.668 ± 0.046. Under RAGGGAWAGGVA stands 0.7085 ± 0.0024; under RAGSLTSGVCGP, 0.663 ± 0.015. Turning to RAIPRPLPPRRI, the protein stability index amounted to 0.7164 ± 0.0029.

As to RAIPTWPIGDRR, the protein stability index stood at 0.655 ± 0.029.

As for RALGVPPLSHLP, the protein stability index was determined as 0.656 ± 0.036. Regarding RALLGSVVCSYG, the protein stability index was 0.6268 ± 0.0016. The value for RALPSPPPCPPG was 0.524 ± 0.031; that for RAPCSLDFRGNA was 0.758 ± 0.12; that for RAPNSVPSIKKP was 0.68 ± 0.098. Turning to RAPPRLHPPFPP, the protein stability index came to 0.676 ± 0.11. Under RAPSLLRPRSPP stands 0.658 ± 0.12; under RAPTRDQCPCPG, 0.68 ± 0.035. The sequence RARFSASCRYRV gave a protein stability index of 0.671 ± 0.048.

For the sequence RARYGPSYTLPL, the protein stability index worked out at 0.642 ± 0.027. RASAHLVAIVRY displayed a protein stability index of 0.642 ± 0.02.

As to RASLPKSLPVSY, the protein stability index worked out at 0.604 ± 0.07. The value for RASRGLGWRRND was 0.66 ± 0.015; that for RATRLFPPPHFS was 0.7 ± 0.037; that for RAVFNMSSPSHI was 0.711 ± 0.077.

As for RCCGGSEVVRAG, the protein stability index came out at 0.705 ± 0.014. Under RCGGGKWWRGAE stands 0.6566 ± 0.0035; under RCGSWKGVRGVM, 0.693 ± 0.032. The value for RCLPSASYPACS was 0.691 ± 0.074; that for RCRLGDFLLSFI was 0.63 ± 0.034.

The sequence RCVGVTNESTGT had a protein stability index of 0.661 ± 0.013.

In turn, RDGGVHVFATLM registered a protein stability index of 0.626 ± 0.018. The value for RDGHGRHGRGER was 0.634 ± 0.024; that for RDLGGECARQVG was 0.7 ± 0.04; that for RDMVSPLPLPLL was 0.613 ± 0.11. The value for RDNKTHSKRAYG was 0.648 ± 0.024; that for RDRFSWGRRSDN was 0.696 ± 0.041. Under RDRVSASILVLP stands 0.6892 ± 0.0056; under REENIKSKCRKI, 0.742 ± 0.021; under REGGEIGDQEGT, 0.674 ± 0.069.

Take REKERKRGKAVK: the protein stability index was determined as 0.698 ± 0.019.
